B1: NP_009172.2 (parent)
chain: LPALFTDLYSQEITAEEAREALP
B2: ZNF8 (parent)
chain: KPYTCSVCGKSFSRTTCLFLHLRT

Variants of: B1
Assay: protein stability index of a GFP-peptide fusion (GPS, HEK-293T) (PSI 1-6); higher = more stable
Details: c terminus: native

Variant	protein stability index
LPALFTDLYSQEITAETAREALP	2.3
LPALFTDLYSQEITAELAREALP	2.16
LPALFTDLYSQEITAEKAREALP	2.18
LPALFTDLYSQEITAERAREALP	1.87
LPALFTDLYSQEITAEWAREALP	2.4
LPALFTDLYSQEITAEAAREALP	2.39
LPALFTDLYSQEITAEYAREALP	2.32
LPALFTDLYSQEITAEQAREALP	2.83
LPALFTDLYSQEITAEDAREALP	2.71
LPALFTDLYSQEITAEPAREALP	2.73
LPALFTDLYSQEITAESAREALP	2.33
LPALFTDLYSQEITAEFAREALP	2.38
LPALFTDLYSQEITAEVAREALP	2.43
LPALFTDLYSQEITAEMAREALP	2.22
LPALFTDLYSQEITAEGAREALP	2.21
LPALFTDLYSQEITAEIAREALP	2.4
LPALFTDLYSQEITAEHAREALP	2.2
LPALFTDLYSQEITAENAREALP	2.5
LPALFTDLYSQEITAECAREALP	2.24
LPALFTDLYSQEITAEEKREALP	2.26
LPALFTDLYSQEITAEESREALP	2.72
LPALFTDLYSQEITAEETREALP	3.04
LPALFTDLYSQEITAEEYREALP	2.35
LPALFTDLYSQEITAEEFREALP	2.73
LPALFTDLYSQEITAEECREALP	2.91
LPALFTDLYSQEITAEEEREALP	2.83

Variant	protein stability index
LPALFTDLYSQEITAEEPREALP	3.08
LPALFTDLYSQEITAEEHREALP	2.42
LPALFTDLYSQEITAEEIREALP	2.57
LPALFTDLYSQEITAEEVREALP	2.71
LPALFTDLYSQEITAEELREALP	2.51
LPALFTDLYSQEITAEENREALP	2.75
LPALFTDLYSQEITAEEQREALP	2.86
LPALFTDLYSQEITAEEDREALP	3.24
LPALFTDLYSQEITAEEWREALP	2.67
LPALFTDLYSQEITAEEGREALP	2.95
LPALFTDLYSQEITAEEMREALP	2.75
LPALFTDLYSQEITAEERREALP	2.45
LPALFTDLYSQEITWEEAREALP	2.68
LPALFTDLYSQEITVEEAREALP	2.78
LPALFTDLYSQEITYEEAREALP	2.72
LPALFTDLYSQEITAEEAREALM	2.27
LPALFTDLYSQEITAEEAREALC	4.21
LPALFTDLYSQEITAEEAREALQ	4.85
LPALFTDLYSQEITAEEAREALF	3.94
LPALFTDLYSQEITAEEAREALT	4.6
LPALFTDLYSQEITAEEAREALS	4.8
LPALFTDLYSQEITAEEAREALD	5.15
LPALFTDLYSQEITAEEAREALG	4.69
LPALFTDLYSQEITAEEAREALK	4.82
LPALFTDLYSQEITAEEAREALV	4.18
LPALFTDLYSQEITAEEAREALW	3

Variant	protein stability index
LPALFTDLYSQEITAEEAREALI	3.59
LPALFTDLYSQEITAEEAREALL	4.01
LPALFTDLYSQEITAEEAREALY	3.49
LPALFTDLYSQEITAEEAREALN	4.89
LPALFTDLYSQEITAEEAREALA	4.14
LPALFTDLYSQEITAEEAREALE	5
LPALFTDLYSQEITAEEAREALR	2.83
LPALFTDLYSQEITAEEAREALH	4.15
LPALFTDLYSQEITAEEAREAGP	2.88
LPALFTDLYSQEITAEEAREAEP	2.69
LPALFTDLYSQEITAEEAREACP	2.65
LPALFTDLYSQEITAEEAREAHP	3.44
LPALFTDLYSQEITAEEAREAPP	3.63
LPALFTDLYSQEITAEEAREASP	3.59
LPALFTDLYSQEITAEEAREADP	4.62
LPALFTDLYSQEITAEEAREAWP	2.67
LPALFTDLYSQEITAEEAREAKP	4.93
LPALFTDLYSQEITAEEAREAAP	3.54
LPALFTDLYSQEITAEEAREAMP	2.44
LPALFTDLYSQEITAEEAREAVP	3.17
LPALFTDLYSQEITAEEAREAYP	3.49
LPALFTDLYSQEITAEEAREATP	3.44
LPALFTDLYSQEITAEEAREANP	4.7
LPALFTDLYSQEITAEEAREAFP	3.49
LPALFTDLYSQEITAEEAREAQP	3.01
LPALFTDLYSQEITAEEAREARP	4.15

Variant	protein stability index
LPALFTDLYSQEITAEEAREAIP	2.37
LPALFTDLYSQEITAEEAREDLP	3.67
LPALFTDLYSQEITAEEAREKLP	2.46
LPALFTDLYSQEITAEEAREFLP	2.31
LPALFTDLYSQEITAEEAREVLP	2.16
LPALFTDLYSQEITAEEAREWLP	2.19
LPALFTDLYSQEITAEEAREILP	2.4
LPALFTDLYSQEITAEEAREGLP	2.81
LPALFTDLYSQEITAEEARETLP	2.85
LPALFTDLYSQEITAEEAREQLP	2.46
LPALFTDLYSQEITAEEAREYLP	2.3
LPALFTDLYSQEITAEEAREPLP	2.69
LPALFTDLYSQEITAEEARELLP	2.26
LPALFTDLYSQEITAEEARESLP	2.7
LPALFTDLYSQEITAEEAREELP	3.6
LPALFTDLYSQEITAEEAREMLP	2.23
LPALFTDLYSQEITAEEARENLP	2.6
LPALFTDLYSQEITAEEARERLP	2.02
LPALFTDLYSQEITAEEARECLP	2.46
LPALFTDLYSQEITAEEAREHLP	2.29
LPALFTDLYSQEITAEEARLALP	2.51
LPALFTDLYSQEITAEEARWALP	2.42
LPALFTDLYSQEITAEEARRALP	1.98
LPALFTDLYSQEITAEEARNALP	2.2
LPALFTDLYSQEITAEEARYALP	3.08
LPALFTDLYSQEITAEEARAALP	2.41

Variant	protein stability index
LPALFTDLYSQEITAEEARFALP	2.43
LPALFTDLYSQEITAEEARIALP	2.32
LPALFTDLYSQEITAEEARSALP	2.28
LPALFTDLYSQEITAEEARHALP	2.27
LPALFTDLYSQEITAEEARQALP	2.22
LPALFTDLYSQEITAEEARKALP	2.42
LPALFTDLYSQEITAEEARCALP	2.38
LPALFTDLYSQEITAEEARPALP	2.86
LPALFTDLYSQEITAEEARGALP	2.11
LPALFTDLYSQEITAEEARVALP	2.6
LPALFTDLYSQEITAEEARDALP	2.65
LPALFTDLYSQEITAEEARMALP	2.39
LPALFTDLYSQEITAEEAHEALP	2.82
LPALFTDLYSQEITAEEACEALP	2.93
LPALFTDLYSQEITAEEAIEALP	2.45
LPALFTDLYSQEITAEEASEALP	2.89
LPALFTDLYSQEITAEEAYEALP	2.53
LPALFTDLYSQEITAEEAFEALP	2.68
LPALFTDLYSQEITAEEALEALP	2.47
LPALFTDLYSQEITAEEAGEALP	2.96
LPALFTDLYSQEITAEEAMEALP	2.59
LPALFTDLYSQEITAEEAKEALP	2.79
LPALFTDLYSQEITAEEAVEALP	2.8
LPALFTDLYSQEITAEEANEALP	2.71
LPALFTDLYSQEITAEEAWEALP	2.56
LPALFTDLYSQEITAEEADEALP	3

Variant	protein stability index
LPALFTDLYSQEITAEEAPEALP	2.93
LPALFTDLYSQEITAEEAAEALP	2.75
LPALFTDLYSQEITAEEAQEALP	2.75
LPALFTDLYSQEITAEEATEALP	2.9
LPALFTDLYSQEITAEEAEEALP	2.81
LPALFTDLYSQEITAREAREALP	2.68
LPALFTDLYSQEITAQEAREALP	2.64
LPALFTDLYSQEITAMEAREALP	2.58
LPALFTDLYSQEITAHEAREALP	2.75
LPALFTDLYSQEITAWEAREALP	2.48
LPALFTDLYSQEITACEAREALP	2.51
LPALFTDLYSQEITAYEAREALP	2.51
LPALFTDLYSQEITAFEAREALP	2.89
LPALFTDLYSQEITAVEAREALP	2.48
LPALFTDLYSQEITATEAREALP	2.62
LPALFTDLYSQEITAPEAREALP	3.16
LPALFTDLYSQEITANEAREALP	2.81
LPALFTDLYSQEITAAEAREALP	2.76
LPALFTDLYSQEITAIEAREALP	2.99
LPALFTDLYSQEITASEAREALP	2.86
LPALFTDLYSQEITAGEAREALP	2.9
LPALFTDLYSQEITAKEAREALP	2.97
LPALFTDLYSQEITALEAREALP	2.73
LPALFTDLYSQEITADEAREALP	2.75

Variants of: B2
Assay: as above
Details: c terminus: a fixed tail appended

Variant	protein stability index
KAYTCSVCGKSFSRTTCLFLHLRT	2.24
KNYTCSVCGKSFSRTTCLFLHLRT	2.14
KKYTCSVCGKSFSRTTCLFLHLRT	2.05
KVYTCSVCGKSFSRTTCLFLHLRT	2.46
KHYTCSVCGKSFSRTTCLFLHLRT	2.5
KRYTCSVCGKSFSRTTCLFLHLRT	1.77
KGYTCSVCGKSFSRTTCLFLHLRT	3
KWYTCSVCGKSFSRTTCLFLHLRT	2.42
KMYTCSVCGKSFSRTTCLFLHLRT	1.98
KTYTCSVCGKSFSRTTCLFLHLRT	2.19
KDYTCSVCGKSFSRTTCLFLHLRT	2.33
KSYTCSVCGKSFSRTTCLFLHLRT	2.72
KLYTCSVCGKSFSRTTCLFLHLRT	1.74
KCYTCSVCGKSFSRTTCLFLHLRT	1.86
KQYTCSVCGKSFSRTTCLFLHLRT	1.87
KYYTCSVCGKSFSRTTCLFLHLRT	2.09
KFYTCSVCGKSFSRTTCLFLHLRT	1.48
KEYTCSVCGKSFSRTTCLFLHLRT	2.55
KIYTCSVCGKSFSRTTCLFLHLRT	2.08
LPYTCSVCGKSFSRTTCLFLHLRT	2.27

Variant	protein stability index
EPYTCSVCGKSFSRTTCLFLHLRT	2.19
CPYTCSVCGKSFSRTTCLFLHLRT	2.08
PPYTCSVCGKSFSRTTCLFLHLRT	1.91
TPYTCSVCGKSFSRTTCLFLHLRT	1.67
YPYTCSVCGKSFSRTTCLFLHLRT	2.24
WPYTCSVCGKSFSRTTCLFLHLRT	1.74
IPYTCSVCGKSFSRTTCLFLHLRT	2.04
MPYTCSVCGKSFSRTTCLFLHLRT	2.22
VPYTCSVCGKSFSRTTCLFLHLRT	1.72
NPYTCSVCGKSFSRTTCLFLHLRT	2.36
GPYTCSVCGKSFSRTTCLFLHLRT	2.48
APYTCSVCGKSFSRTTCLFLHLRT	2.74
SPYTCSVCGKSFSRTTCLFLHLRT	1.93
RPYTCSVCGKSFSRTTCLFLHLRT	2.26
FPYTCSVCGKSFSRTTCLFLHLRT	2.19
QPYTCSVCGKSFSRTTCLFLHLRT	2.39
HPYTCSVCGKSFSRTTCLFLHLRT	2.1
DPYTCSVCGKSFSRTTCLFLHLRT	2.46
KPATCSVCGKSFSRTTCLFLHLRT	1.63

From the supplement of paper PMC10567573
